Blank lines part the entries; values can stand above or below the binder they belong to.
Columns and labels:
Test in all cases: holdup assay
Set-up in all cases: key: below the threshold = too weak to quantify, mostly under pKd 3.1 to 4
Conditions in all cases: plain residues with an end cap or a label only (N-terminal biotin on a linker: ado-ado)
MPP2, Q14168 = target: T1, MPP2, Q14168
T1 sequence (Q14168 180-250, limits assumed, looked up): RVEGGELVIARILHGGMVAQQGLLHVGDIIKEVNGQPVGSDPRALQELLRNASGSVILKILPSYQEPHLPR

HTRA1, Q92743 = target: HTRA1, Q92743
DLG3_2, Q92796 = target: T2, DLG3_2, Q92796
T2 sequence (Q92796 221-321, limits assumed, looked up): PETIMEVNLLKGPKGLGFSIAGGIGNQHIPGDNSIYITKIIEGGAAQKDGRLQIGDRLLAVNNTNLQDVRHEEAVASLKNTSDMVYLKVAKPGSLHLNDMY

PDLIM1, O00151 = target: PDLIM1, O00151
NHERF3_1, Q5T2W1 = target: T3, NHERF3_1, Q5T2W1
T3 sequence (Q5T2W1 4-100, limits assumed, looked up): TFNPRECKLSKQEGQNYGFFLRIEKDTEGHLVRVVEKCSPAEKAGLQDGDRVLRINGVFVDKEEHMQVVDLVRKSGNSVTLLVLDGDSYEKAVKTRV

APBA2_1, Q99767 = target: T4, APBA2_1, Q99767
T4 sequence (Q99767 563-664, limits assumed, looked up): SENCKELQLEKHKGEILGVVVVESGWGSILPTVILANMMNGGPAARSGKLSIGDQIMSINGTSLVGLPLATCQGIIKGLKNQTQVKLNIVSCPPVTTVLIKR

DLG2_3, Q15700 = target: DLG2_3, Q15700
Inadl_8, Q8NI35 = target: Inadl_8, Q8NI35
APBA1_1, Q02410 = target: T5, APBA1_1, Q02410
T5 sequence (Q02410 651-752, limits assumed, looked up): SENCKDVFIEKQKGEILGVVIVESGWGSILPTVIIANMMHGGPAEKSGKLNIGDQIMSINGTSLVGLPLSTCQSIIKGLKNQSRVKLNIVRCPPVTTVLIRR

IL16_3, Q14005 = target: IL16_3, Q14005
GRIP1_5, Q9Y3R0 = target: T6, GRIP1_5, Q9Y3R0
T6 sequence (Q9Y3R0 568-668, limits assumed, looked up): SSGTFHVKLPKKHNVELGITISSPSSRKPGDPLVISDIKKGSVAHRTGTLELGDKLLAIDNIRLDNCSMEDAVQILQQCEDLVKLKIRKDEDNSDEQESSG

NOS1, P29475 = target: NOS1, P29475
MAGI1_1, Q96QZ7 = target: MAGI1_1, Q96QZ7
GRIP2_4, Q9C0E4 = target: GRIP2_4, Q9C0E4
GRID2IP_2, A4D2P6 = target: GRID2IP_2, A4D2P6
SYNJ2BP, P57105 = target: T7, SYNJ2BP, P57105
T7 sequence (P57105 8-110, limits assumed, looked up): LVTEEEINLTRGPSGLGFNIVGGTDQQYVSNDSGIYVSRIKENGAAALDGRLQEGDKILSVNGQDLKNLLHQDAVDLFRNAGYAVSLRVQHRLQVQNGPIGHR

DLG4_1, P78352 = target: DLG4_1, P78352
GRIP2_5, Q9C0E4 = target: GRIP2_5, Q9C0E4
LNX2_2, Q8N448 = target: T8, LNX2_2, Q8N448
T8 sequence (Q8N448 334-432, limits assumed, looked up): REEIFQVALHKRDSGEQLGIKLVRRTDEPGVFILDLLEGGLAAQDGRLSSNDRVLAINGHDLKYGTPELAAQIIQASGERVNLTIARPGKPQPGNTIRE

RHPN1, Q8TCX5 = target: T9, RHPN1, Q8TCX5
T9 sequence (Q8TCX5 508-602, limits assumed, looked up): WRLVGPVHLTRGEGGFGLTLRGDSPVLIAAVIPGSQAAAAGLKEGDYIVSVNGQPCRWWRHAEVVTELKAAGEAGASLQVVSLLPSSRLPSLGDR

NHERF3_3, Q5T2W1 = target: T10, NHERF3_3, Q5T2W1
T10 sequence (Q5T2W1 238-333, limits assumed, looked up): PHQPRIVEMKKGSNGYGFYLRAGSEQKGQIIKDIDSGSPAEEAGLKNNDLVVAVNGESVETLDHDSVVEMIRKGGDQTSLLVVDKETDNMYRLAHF

GRIP1_3, Q9Y3R0 = target: T11, GRIP1_3, Q9Y3R0
T11 sequence (Q9Y3R0 247-346, limits assumed, looked up): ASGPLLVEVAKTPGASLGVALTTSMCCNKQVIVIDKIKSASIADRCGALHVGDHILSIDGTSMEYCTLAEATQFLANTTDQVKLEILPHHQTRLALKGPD

APBA1_2, Q02410 = target: T12, APBA1_2, Q02410
T12 sequence (Q02410 742-832, limits assumed, looked up): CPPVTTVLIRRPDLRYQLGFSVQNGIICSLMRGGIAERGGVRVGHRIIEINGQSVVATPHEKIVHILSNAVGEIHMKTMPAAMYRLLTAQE

PICK1, Q9NRD5 = target: PICK1, Q9NRD5
DLG4_2, P78352 = target: DLG4_2, P78352
FRMPD3, Q5JV73 = target: FRMPD3, Q5JV73
FRMPD3, Q5JV73, sequence (Q5JV73 12-100): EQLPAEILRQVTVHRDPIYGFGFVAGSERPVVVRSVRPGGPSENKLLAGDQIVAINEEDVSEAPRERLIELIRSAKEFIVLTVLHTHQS

GRID2IP_2, A4D2P6, sequence (A4D2P6 272-370): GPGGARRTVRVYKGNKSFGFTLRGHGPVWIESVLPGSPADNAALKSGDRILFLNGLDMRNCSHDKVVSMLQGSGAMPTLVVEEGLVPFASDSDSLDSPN
PDLIM1, O00151, sequence (O00151 1-87): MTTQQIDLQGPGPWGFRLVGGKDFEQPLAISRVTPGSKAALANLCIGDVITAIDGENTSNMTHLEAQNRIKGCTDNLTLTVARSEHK
MAGI1_1, Q96QZ7, sequence (Q96QZ7 1-106): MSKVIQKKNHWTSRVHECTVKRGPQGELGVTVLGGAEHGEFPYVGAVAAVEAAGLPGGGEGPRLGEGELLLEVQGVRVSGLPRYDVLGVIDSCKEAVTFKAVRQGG
DLG4_1, P78352, sequence (P78352 62-152): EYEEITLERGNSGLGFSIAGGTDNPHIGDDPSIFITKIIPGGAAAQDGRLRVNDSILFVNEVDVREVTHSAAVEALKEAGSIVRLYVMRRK
HTRA1, Q92743, sequence (Q92743 360-477): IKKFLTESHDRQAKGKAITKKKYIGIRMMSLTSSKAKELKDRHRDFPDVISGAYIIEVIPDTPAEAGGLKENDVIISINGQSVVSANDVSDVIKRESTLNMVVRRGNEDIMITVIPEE
IL16_3, Q14005, sequence (Q14005 1107-1207): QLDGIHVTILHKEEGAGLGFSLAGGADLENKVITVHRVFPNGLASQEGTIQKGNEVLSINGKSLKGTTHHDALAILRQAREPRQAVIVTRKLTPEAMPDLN
DLG4_2, P78352, sequence (P78352 155-259): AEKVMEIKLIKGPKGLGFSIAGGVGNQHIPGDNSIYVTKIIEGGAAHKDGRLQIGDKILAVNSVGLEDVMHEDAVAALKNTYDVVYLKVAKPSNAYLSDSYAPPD
Inadl_8, Q8NI35, sequence (Q8NI35 1425-1530): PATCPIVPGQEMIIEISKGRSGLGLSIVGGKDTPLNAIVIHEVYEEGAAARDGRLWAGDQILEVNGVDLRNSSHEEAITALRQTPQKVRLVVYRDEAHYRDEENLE
GRIP2_4, Q9C0E4, sequence (Q9C0E4 446-548): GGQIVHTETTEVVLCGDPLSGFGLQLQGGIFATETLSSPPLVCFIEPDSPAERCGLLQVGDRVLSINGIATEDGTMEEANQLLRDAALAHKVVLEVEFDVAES
GRIP2_5, Q9C0E4, sequence (Q9C0E4 544-642): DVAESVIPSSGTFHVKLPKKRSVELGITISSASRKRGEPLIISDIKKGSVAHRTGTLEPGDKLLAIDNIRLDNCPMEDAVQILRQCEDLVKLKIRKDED
NOS1, P29475, sequence (P29475 9-101): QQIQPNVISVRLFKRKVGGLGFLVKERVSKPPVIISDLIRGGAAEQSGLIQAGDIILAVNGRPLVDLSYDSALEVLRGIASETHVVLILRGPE
PICK1, Q9NRD5, sequence (Q9NRD5 17-115): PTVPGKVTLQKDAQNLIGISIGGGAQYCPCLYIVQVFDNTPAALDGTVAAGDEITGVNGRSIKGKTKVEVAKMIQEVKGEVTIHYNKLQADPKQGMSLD

B1: NEB, P20929 (peptide)
chain: MLPANYVEAI
- pKd (MPP2, Q14168): below the threshold
- pKd (HTRA1, Q92743): 4.03
- pKd (DLG3_2, Q92796): 4.11
- pKd (PDLIM1, O00151): below the threshold
- pKd (NHERF3_1, Q5T2W1): below the threshold
- pKd (APBA2_1, Q99767): below the threshold
- pKd (DLG2_3, Q15700): 3.56
- pKd (Inadl_8, Q8NI35): below the threshold
- pKd (APBA1_1, Q02410): below the threshold
- pKd (IL16_3, Q14005): below the threshold
- pKd (GRIP1_5, Q9Y3R0): below the threshold
- pKd (NOS1, P29475): 3.52
- pKd (MAGI1_1, Q96QZ7): below the threshold
- pKd (GRIP2_4, Q9C0E4): below the threshold
- pKd (GRID2IP_2, A4D2P6): below the threshold
- pKd (SYNJ2BP, P57105): below the threshold
- pKd (DLG4_1, P78352): below the threshold
- pKd (GRIP2_5, Q9C0E4): below the threshold
- pKd (LNX2_2, Q8N448): below the threshold
- pKd (RHPN1, Q8TCX5): below the threshold
- pKd (NHERF3_3, Q5T2W1): below the threshold
- pKd (GRIP1_3, Q9Y3R0): below the threshold
- pKd (APBA1_2, Q02410): below the threshold
- pKd (PICK1, Q9NRD5): 3.94
- pKd (DLG4_2, P78352): below the threshold
- pKd (FRMPD3, Q5JV73): below the threshold

B3: LRRC4, Q9HBW1 (peptide)
chain: TKDKVQETQI
- pKd (MPP2, Q14168): below the threshold
- pKd (HTRA1, Q92743): below the threshold
- pKd (DLG3_2, Q92796): 4.57
- pKd (PDLIM1, O00151): below the threshold
- pKd (NHERF3_1, Q5T2W1): 5.21
- pKd (APBA2_1, Q99767): below the threshold
- pKd (DLG2_3, Q15700): 4.16
- pKd (Inadl_8, Q8NI35): 3.5
- pKd (APBA1_1, Q02410): below the threshold
- pKd (IL16_3, Q14005): below the threshold
- pKd (GRIP1_5, Q9Y3R0): below the threshold
- pKd (NOS1, P29475): 4.02
- pKd (MAGI1_1, Q96QZ7): 3.59
- pKd (GRIP2_4, Q9C0E4): below the threshold
- pKd (GRID2IP_2, A4D2P6): 4.17
- pKd (SYNJ2BP, P57105): 4.75
- pKd (DLG4_1, P78352): 4.44
- pKd (GRIP2_5, Q9C0E4): below the threshold
- pKd (LNX2_2, Q8N448): below the threshold
- pKd (RHPN1, Q8TCX5): 4.84
- pKd (NHERF3_3, Q5T2W1): below the threshold
- pKd (GRIP1_3, Q9Y3R0): below the threshold
- pKd (APBA1_2, Q02410): 3.55
- pKd (PICK1, Q9NRD5): below the threshold
- pKd (DLG4_2, P78352): 4.76
- pKd (FRMPD3, Q5JV73): below the threshold

Second part, the binder after the results:

- pKd (MPP2, Q14168): below the threshold
- pKd (HTRA1, Q92743): 4.04
- pKd (DLG3_2, Q92796): 4.15
- pKd (PDLIM1, O00151): below the threshold
- pKd (NHERF3_1, Q5T2W1): 3.79
- pKd (APBA2_1, Q99767): below the threshold
- pKd (DLG2_3, Q15700): below the threshold
- pKd (Inadl_8, Q8NI35): 3.59
- pKd (APBA1_1, Q02410): below the threshold
- pKd (IL16_3, Q14005): below the threshold
- pKd (GRIP1_5, Q9Y3R0): below the threshold
- pKd (NOS1, P29475): below the threshold
- pKd (MAGI1_1, Q96QZ7): below the threshold
- pKd (GRIP2_4, Q9C0E4): below the threshold
- pKd (GRID2IP_2, A4D2P6): 3.65
- pKd (SYNJ2BP, P57105): below the threshold
- pKd (DLG4_1, P78352): 4.12
- pKd (GRIP2_5, Q9C0E4): below the threshold
- pKd (LNX2_2, Q8N448): 4.22
- pKd (RHPN1, Q8TCX5): 4.35
- pKd (NHERF3_3, Q5T2W1): below the threshold
- pKd (GRIP1_3, Q9Y3R0): below the threshold
- pKd (APBA1_2, Q02410): 3.84
- pKd (PICK1, Q9NRD5): below the threshold
- pKd (DLG4_2, P78352): 4.21
- pKd (FRMPD3, Q5JV73): below the threshold
B2: SLC2A3, P11169 (peptide)
chain: EPAKETTTNV

- pKd (MPP2, Q14168): below the threshold
- pKd (HTRA1, Q92743): below the threshold
- pKd (DLG3_2, Q92796): below the threshold
- pKd (PDLIM1, O00151): below the threshold
- pKd (NHERF3_1, Q5T2W1): 3.66
- pKd (APBA2_1, Q99767): below the threshold
- pKd (DLG2_3, Q15700): below the threshold
- pKd (Inadl_8, Q8NI35): below the threshold
- pKd (APBA1_1, Q02410): below the threshold
- pKd (IL16_3, Q14005): below the threshold
- pKd (GRIP1_5, Q9Y3R0): below the threshold
- pKd (NOS1, P29475): below the threshold
- pKd (MAGI1_1, Q96QZ7): below the threshold
- pKd (GRIP2_4, Q9C0E4): below the threshold
- pKd (GRID2IP_2, A4D2P6): below the threshold
- pKd (SYNJ2BP, P57105): 4.15
- pKd (DLG4_1, P78352): 3.83
- pKd (GRIP2_5, Q9C0E4): 3.5
- pKd (LNX2_2, Q8N448): below the threshold
- pKd (RHPN1, Q8TCX5): 3.85
- pKd (NHERF3_3, Q5T2W1): below the threshold
- pKd (GRIP1_3, Q9Y3R0): below the threshold
- pKd (APBA1_2, Q02410): below the threshold
- pKd (PICK1, Q9NRD5): below the threshold
- pKd (DLG4_2, P78352): 3.91
- pKd (FRMPD3, Q5JV73): below the threshold
B4: SLCO2B1, O94956 (peptide)
chain: PGKKPEDSRV

Reference: article PMC9482650, “Quantitative fragmentomics allow affinity mapping of interactomes” (Nature Communications, 2022)
